# Laboratory results taken from patent US20250051435A1 (INVETX, published 2025).
# T1: feline IL-5 (Kingfisher Biotech; RP1152F) (feline, UniProt O77515 20-134)
# T1 construct: Bought recombinant protein; also called fIL-5; fIL5
# T1 sequence (looked up): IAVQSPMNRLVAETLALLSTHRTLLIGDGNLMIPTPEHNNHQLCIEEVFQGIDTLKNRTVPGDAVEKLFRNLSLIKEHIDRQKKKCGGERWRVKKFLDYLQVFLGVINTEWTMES
# B1: murine anti-feline IL-5 antibody clone 154 (antibody, V domains shown)
# VH: EVQLVESGGDLVKPGGSLKLSCAASGFTFSNYAMSWVRQTPDKRLEWVATIGSGGHYTYHPDSVKGRFSISRDNAKNTLSLQMSSLKSEDTAMYYCTRETDGYDGMDYWGQGTSVTVSS
# VL: DIVMTQSPATLSVTPGDRVSLSCRASQSISDYLYWYQQKSHESPRLLIKYASQSISGIPARFSGSGSGSDFTLSINSVEPEDVGVYYCQNGHSFPYTFGGGTKLEIK
# notes: also called murine antibody 154
# Target: T1, feline IL-5 (Kingfisher Biotech; …)
# Experiment: high-throughput SPR (Carterra LSA), antibody coupled to HC-30M chip, feline IL-5 as analyte
# Experimental: The chip surface was first activated by flowing a freshly prepared 1:1:1 activation mix of 100 mM MES pH 5.5, 100 mM S-NHS, and 400 mM EDC for seven minutes. Antibodies diluted to 10 μg/mL in 10 mM sodium acetate, pH 4.25 buffer, 0.01% Tween were coupled to the chip surface for 10 min using the instrument 96 Multi Flow Channel printhead. The chip surface was quenched by flowing 1 M Ethanolamine for seven minutes, followed by two wash steps of 15 seconds each in 25 mM MES pH 5.5 buffer. Feline IL-5 (Kingfisher Biotech; RP1152F) was used at the following concentrations: 1000, 333.3, 111.1, 37.0, 12.3, 4.1, 1.4, 0.45, and 0.15 nM.
binder,measurement,value
B1,Kd,0.141 nM
